Consider one molecule from US20230026666A1 (CATHOLIC UNIVERSITY OF AMERICA, published 2023).

One assay addresses T1, CD4 receptor on cells (human, UniProt P01730 26-458).
T1 construct: whole, on cells; also called CD4 receptor on T cells; CD4+ T cells (A3.01, A3R5, J-Lat 10.6, human PBMC)
As to the kind of experiment: cell binding assay, protein coated, A3.01, A2.01 and Tzmbl cells added, CellTiterGlo detection. (Cellular ATP, detected with luciferase, serves as a proxy for viable cell number.)

Assay [1] deals with T2, soluble human CD4 receptor with full-length extracellular domain (amino acids 1-370) (human, UniProt P01730 26-396).
T2 construct: extracellular domain; also called soluble CD4; recombinant soluble CD4 (NIH AIDS Reagent program, 4615)
As to the kind of experiment: ELISA, 0.1 ug protein coated per well, soluble CD4 added, detected with anti-CD4 antibody Sim.2.

B1: Hoc (highly antigenic outer capsid protein), N-terminal hexa-histidine tag (other)
chain: HHHHHHMTFTVDITPKTPTGVIDETKQFTATPSGQTGGGTITYAWSVDNVPQDGAEATFSYVLKGPAGQKTIKVVATNTLSEGGPETAEATTTITVKNKTQTTTLAVTPASPAAGVIGTPVQFTAALASQPDGASATYQWYVDDSQVGGETNSTFSYTPTTSGVKRIKCVAQVTATDYDALSVTSNEVSLTVNKKTMNPQVTLTPPSINVQQDASATFTANVTGAPEEAQITYSWKKDSSPVEGSTNVYTVDTSSVGSQTIEVTATVTAADYNPVTVTKTGNVTVTAKVAPEPEGELPYVHPLPHRSSAYIWCGWWVMDEIQKMTEEGKDWKTDDPDSKYYLHRYTLQKMMKDYPEVDVQESRNGYIIHKTALETGIIYTYP
notes: Negative control
B1: the binding result in the assay with CD4 receptor on cells is “no binding (tested: 15 pmoles per well)”; in assay [1], “no binding”.
